This is an account of results in PMC3553982 (Nucleic Acids Research, 2012).

For data set [1], the target named is 5-FAM labeled Rim1 (FAM-Rim1) (S. cerevisiae) (UniProt P32445). Put plainly: fluorescence polarisation.
In data set [2] the target is 5-FAM labeled Rim1ΔC18 (FAM-Rim1ΔC18) (S. cerevisiae) (UniProt P32445). Nature of the data set: fluorescence polarisation.
For data set [3], the target named is Human mitochondrial SSB (HsmtSSB) (human) (UniProt Q04837). Nature of the data set: pull-down.
Chain of Human mitochondrial SSB (HsmtSSB) (human) (Q04837 17-148): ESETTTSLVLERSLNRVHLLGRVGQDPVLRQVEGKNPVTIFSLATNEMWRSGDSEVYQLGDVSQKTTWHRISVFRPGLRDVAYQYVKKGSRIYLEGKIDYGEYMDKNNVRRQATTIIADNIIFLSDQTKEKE
The target in a further data set is Rim1ΔC18 (S. cerevisiae) (UniProt P32445). Put plainly: pull-down.
The target of the next data set is T1, Rim1ΔC18 (Saccharomyces cerevisiae, UniProt P32445 18-117, del118-135).
T1 sequence: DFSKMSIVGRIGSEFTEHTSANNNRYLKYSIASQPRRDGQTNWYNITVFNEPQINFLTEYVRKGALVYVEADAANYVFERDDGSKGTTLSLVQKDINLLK
Nature of the data set: fluorescence anisotropy.

The target of another data set is T2, Rim1 (Saccharomyces cerevisiae, UniProt P32445 18-135).
T2 sequence: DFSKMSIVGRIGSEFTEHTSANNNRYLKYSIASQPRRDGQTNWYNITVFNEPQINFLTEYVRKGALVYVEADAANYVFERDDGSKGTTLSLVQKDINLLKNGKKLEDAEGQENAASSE
Nature of the data set: fluorescence anisotropy.

The data set “SEC-MALS” deals with the molecule itself. Put plainly: SEC-MALS.

For the molecule “Pif1 (recombinant, nuclear form) (from UniProt P07271 46-859) (enzyme)”, the Kd in data set [1] was determined as 690 nM; in data set [2] it was 2500 nM. The relative amount of Pif1 co-precipitated (Pif1 bound to Rim1 taken as 1) in data set [3] worked out at 0.63; with Rim1ΔC18 (S. cerevisiae) it was 0.45.

B1: 3'F-T70 (ssDNA)
DNA: TTTTTTTTTTTTTTTTTTTTTTTTTTTTTTTTTTTTTTTTTTTTTTTTTTTTTTTTTTTTTTTTTTTTTT
B1: the dissociation constant (Kd) in the data set with Rim1ΔC18 and with Rim1 was less than 1 nM in each case.

B2: Rim1ΔC18 (domain or fragment, S. cerevisiae, UniProt P32445 18-117, looked up)
chain: T1 sequence
As to B2, the “stoichiometry N” value in “SEC-MALS” amounted to 4.
